Experiments:
[1] = target: human insulin receptor (human) (UniProt P06213); experiment: FACS, serum-starved IM-9 cells, no insulin
[2] = target: human insulin receptor complexed with human insulin (human) (UniProt P06213); experiment: KinExA, affinity with insulin against affinity without insulin
[3] = target: human insulin receptor (human) (UniProt P06213); experiment: KinExA antibody depletion by hINSR8-CHOK1 cells, without insulin
[4] = target: human insulin receptor complexed with human insulin (human) (UniProt P06213); experiment: FACS, serum-starved IM-9 cells pre-exposed to human insulin
[5] = target: human insulin receptor complexed with human insulin (human) (UniProt P06213); experiment: KinExA antibody depletion by hINSR8-CHOK1 cells, with 175 nM insulin
[6] = target: human insulin receptor (human) (UniProt P06213); experiment: FACS, serum-starved IM-9 cells; insulin state of the control not stated

Substance	MFI [1]	Fold Improvement with Insulin [2] [fold]	Kd [3] [nM]	MFI [4]	Kd [5] [nM]	MFI [6]
83-7 (antibody)	18.4	3	0.48	34.9	0.16	–
Neg Control	–	–	–	–	–	3.83

— US20160009800A1
